Experimental data as given in the domain aggregation screens of Martell et al. (2025).

Assay: soluble fraction after stress (log2 fold change); higher = more stays soluble; pooled small domains, quantitative proteomics
Details: stress: pH 4
Procedure, shortened: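 Custom libraries of small protein domains were pooled and exposed to pH 4. High-throughput quantitative proteomics then measured the log2 fold change in the amount of each domain still soluble, with higher values meaning more stayed soluble. This soluble-fraction fold change stands for aggregation propensity.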

| Sequence | soluble fraction (log2) |
| --- | --- |
| HMDLPDTLSMPNALKVLEDNGFPTSKAKLYKMTSQEQIPFMKYGNKLVFSRKALIEWAHKQLV | 0.301 |
| HMDLPREKRIEIGLTYIYGIGLKTSQKILAATGIDPNTRVKDLDETTVSKLREYIDHNYRVEGELRS | -0.217 |
| HMDLSLQTFNELKTELTNNKITIDQFSEKINEFDITSDIFEISRELFLDDTLSLEDYLVVIENVLIN | -0.782 |
| HMDLSQTVQAKALARVNVREGAGTHFKSLGKLKKGELLPVFRVGNSWASIWWKGRVAYVHTDYLRFESA | -0.153 |
| HMDLTKLFDHDSEYGKSYVFGKITDEMIARAEQTLGYRMPASYIELLKVQNGGMISDELDESWLTTIYGIG | -0.932 |
| HMDMAYEVVKAFHDLQDYKDVKGGKVYHHYDVGDTYPRQGLDPAPDETRIEELLSSGNAQGVPLIAEV | -0.219 |
| HMDMNVQNYRGLSLDRAKKLISDLGLKYEVVGTGDSVVKQVPSSGSRMSKENGRIILYTENVEDA | 0.278 |
| HMDMPLIGTAIRGWGIISPAQQETLIKMSILTVEDLAAINDEGIKRIGMGGLDLKNKAKAWLLQLK | -0.00985 |
| HMDMRLADLIGRDGITITFMRPSGKVEIDGEIYDAVSDVGLIDKNEEVEVIKFENAQLVVTKKNKN | 0.108 |
| HMDMSVDQFNQGIRGSELYQQFIHGRGLQQPDGKTREWTDADRNAWRRTLEASGVRIPDGMKIDNAGNLNE | -0.052 |
| HMDNEIIEEEKITTLMITHNMRDAIKYGNRLIMLNEGRVIFDISGEEKKNLTVQELLEKFEK | 0.22 |
| HMDNEIMYPIQINGKVRAELFVSTERAMDKQYVLEQAKANEKIQGYLEGNRLVKEIFVPKRIVNLVIAP | 0.184 |
| HMDNIEIGNRIREIRIKKNISVFELAYRTKTSQSHIYQIEGGSQNMSIELLFKIADTLETDPNTILGV | -2.25 |
| HMDNIPAHIKAKIINYVNRNYPGAIIKDIERKSNGRYEAEIVYNNREYDLLFDAQGNFISASLDDK | -0.32 |
| HMDNNFIQSLYPIAIGISKNQLDPWDLINGWVEYYLKNKEKYINHPNLKAVAVLKMKGLLIDHFRKS | -1.96 |
| HMDNPKGNLQEAVQAKGNEPIEYRVLNVDGPDHAREFKIAVFIGGKRKGTGVGNSKKKAEEIAAEKAFKRM | -0.189 |
| HMDNPVPVIITDQNFQPQLWKNVGVPTDTLFHELSAANQRKLENLMKTMIQTPLTDNGKISGYAFYSK | 0.152 |
| HMDNREKLRQEFLENLKELQEQNDIPQQEIDRVILDYDGVAEFLEDEGALKRYGGQLVDMTAYRAGAIPS | -2 |
| HMDNRLFKMLYYLLDKERATAPELAAEFEVSTRTIYRDVEALSSAGIPIYAEPGRNGGIYLLQD | -1.1 |
| HMDNTSNVEKTLRFIRQRGKVSRKEVETLLGSSKFPAISALNELLAENKIVKTGSGPAVRYSVS | 0.018 |
| HMDNVINDGMQVRFTGNVDINGTPLKIYDRIYTAEGISDDTVVLMLGNDVYARVYLSDVVPAD | -0.275 |
| HMDNWLSGLAVEADRMILTQPGEVFDRLSRAFEATLIRRALASTGGRRIEAAHLLGIGRNTITRKIQDLGL | -1.45 |
| HMDPDARQDAEVWLLDFLSAGPRTAQEIFTAARVEGHTRVTVKRAKATAGIQSVKQDFDGPWVWVLPGSG | -0.932 |
| HMDPFAYEVKVTDLAAGSSEIRTVYTEQGSFNIPSGMSGNLKIQVRSASMYDEVEPSDWYTIGEEDIN | -0.461 |
| HMDPLASLTPREREVLSLMAQGLSNLAVAERLVVSAGAVEKHISSIFTKLDLAPSEHEHRRVLAVLRYVAG | -2.09 |
| HMDPPISNDARNAINAKLMKFSELHPNEMKKLVEAYKKEFKVSKISPITLARQGEFLSHAISKIDDT | -0.0331 |

| Sequence | soluble fraction (log2) |
| --- | --- |
| HMDPQDGTVKFFNGARGFGFITPDGGGADVFVHVSAVERAGLTQLVEGQRVNFQTLPDTKGKGPKAVNLKV | -0.531 |
| HMDPSDQLYTVPPSAEGLRLDLFLVQHVPHMTRALATQLTGAGQVRVNGRRAKKGDRLPSGAQVRLEQAP | -0.138 |
| HMDPSHGESRENLDIMRIIDETHLEYPSWGYRKMTDHLRANHGYTINRKRVRRLMRLMDIIALFPG | -0.908 |
| HMDPSVTGLLTRLGISPQTAQELAGQYEEPYILEKIAIVEAHPEYVKNAAGFVITALQEDWKD | -1.37 |
| HMDPTHDMHFLVKDQVTGQPLPNMPYRLQLDNGQTLTGRTDALGMTEKISGHSPHIASIEVPY | 0.025 |
| HMDPVILDINSVKALLGISNKADFMAELSRLVVTEGDKKMIIPLAKEVGIDNVAVYKRNEIENISNYK | -0.297 |
| HMDQAEDVLSIPVDALMRGNQVYIKDDTVTEQQGPIPAGFKAVEVETGLISDSYVEIKSGLSEGDTVYVAE | -0.661 |
| HMDQESFGYFHVKYADVKQVADLVQKLNIPAVTWADERTRRLVALGSPATLQRISQVLNMVDL | -0.476 |
| HMDQHPYGEDSFRGDNPPAGFDIKGNEDSMKFHEPSSPWYGRTIAEVWFRSAAAAEAAGFVNAV | -0.0254 |
| HMDQINNDLRKLIEFLPEDQKTVLKMRHFQEMSFKEIAKATGVSINTALGRMRYALINLRKLIEENEI | -0.903 |
| HMDQPLIEPLSERELEVLSLIAAGYSNAEIAERLVIAVGTVKRHINNLYGKLGAGSRTQALAIAREIGLM | -0.661 |
| HMDQTKYDAIITEAKKLTAEGQYKESEEKLATIPVSDLGKPHYSIVKETVEKLNNQNNEGLKRQEEVAVE | -0.0626 |
| HMDQVLHQLVEVLRRSEIRISPAETLDAFKVLRNVGIDNKSLLREALALTLAKSIHEKIIFYETFDEFFT | -1.08 |
| HMDRADIDAVDAEWVRATMERLGLRAKHIESHTGISKSTLSILLNGHRPLTRWHKIAFYYLFKHIEF | -1.82 |
| HMDRDQNVEEGQRSLKSEMGRFGLLIANMDDLAERVNYGNAEDMYAAIGAGDLRLMQVVHAAEEMLG | -0.61 |
| HMDRENNITAGREILEKELSRLALNMKMVNLQDYAARFNVKHSDDILAGIGAGDIRPAHIVNAIAEKLT | -0.304 |
| HMDREQLELYVGEVRVLQVGELRRIAIGNGKVLQASALDRGQLLLIPEAPGQSVLYLWTRDGTERHLSISV | -0.81 |
| HMDRESFIKLGRELARSAFAHVGQKSTEKALETAADVLRLKDPNEVLARLGSAELTGRQVVQAIYPELI | 0.0233 |
| HMDRFRYYITEDSVQRGTYPYVDETTLKRFTSQLHKYEQGMISAYGYLEYSKPLTAEQIKDYTLMPSP | -0.485 |
| HMDRFVLQLSKRYYDSSIEGVRKALAAFPVKTELLDQDRGGRPFYHENGKENEPVFRIMFHPEEGM | -0.116 |
| HMDRIISTPMPGRVVKIPVTEGEPVAKGATVITISAMKMESEYKSPIDGIVKKIHVSEGDNINANQPLIEI | -0.112 |
| HMDRKFFYEDQYQDYLGEELKVSFFDTDNKKTVRGTLSEVTPHGIKINLEQETQEIPFSSIIQANLI | -0.44 |
| HMDRPARDEAQSWLADVLADGPVPTAEIREEAEAAGLAWRTIQRARIALSVEPIRGDGRNAWLWQLPG | 0.377 |
| HMDRQIQITVAENEAGQRLDAFLAAKIPDMSRSYIQKLIEDGLILVNGQSTKGKVKTYSGMNIEVYMPE | 0.22 |
| HMDRRDEYHQHLLRLLLSGEIRDKDELQRRKVKLSGEYGLAGVPKNSETLALVPPDRLPEVLDILR | -0.289 |
| HMDRSIGDIIAELRDLSAEQVERVLAHQRETGVRFGEAAVALGYASKEDVLFALSQQFHYPYAPEE | -0.946 |

| Sequence | soluble fraction (log2) |
| --- | --- |
| HMDRSVTAAELRLAAMDLLARREHGSQELEAKLSRRFHKRHYDVELLRSVIEQLTVEGLLSDERFAVS | -1.07 |
| HMDRVTYPVSFNGKVRFQLELDAGMNAKEVETAALGHEKTAAQIEGKTIRKVIVVPGRIINIVV | -0.404 |
| HMDRWTPLVVAVLSRGSHRFGELRAAIGGITPKVLTDTLRSMERDGLITRDQAPGVPPRVDYALTPLGS | -0.126 |
| HMDSALKDDLNAFVKKLDVESQTLFMRRYFLGESVSSLASRFEMSEDNVGVKLFRIRAKLKKYLTGKGYD | -0.445 |
| HMDSAMMDLVMRVQLALFTKGYDVGIIDGKIGPKTRAQIKRYQSDNRLSSTGTLTTSLLTSLGIQ | 0.00457 |
| HMDSATDRVALKELLNTLSARERTIITLRYFSDQTQTQVAKSLGISQVQVSRLENAILQRLRKL | -0.271 |
| HMDSDELEAFRLITSVNGVGPKLGIAILSEFTAEKLTVFIASGDAKALTAASGVGIKLAQRIVLELKDKVG | -0.184 |
| HMDSDFIKIEVLFNERNRLDLKAMMEASGFTDRGQFLSIMADLTGDENWDRNLDRGDIFYLPRSFTI | -1.6 |
| HMDSDIGQQLKILLTVGTFMPSTELKAIAQQFGMKKPTDLKEWVELESDTQRIKGNPTKGYWINEINDL | -0.262 |
| HMDSEEVYQMTKHKMDAAQISVAKRIHINLVLVKLLELHHLGYDLRHYHAQHHAFIKRLNLPEYFRFD | -0.832 |
| HMDSEKVLTNLKEELVLQLSNIEPYGYVPSQYWYSKVQRVQSVQELGKYVDGDLEAFVMKYAEDWESQK | -0.951 |
| HMDSGFMRTTQSYTVARLAEIFRLSGEDYLAVLREYDGWYQDLTSTKDLIRKGSDVPVPEGV | -1.02 |
| HMDSGLEQAKTAALENAELETSQVTFIKAELDYDDGKKVYEIEFVTSAMKYEYQVKADDFSILEMSKETIE | -0.129 |
| HMDSHSAESVRQRIKDMIAAEASKSILSDDTIVENLKSEGIEIARRTVAKYRESLNIPSSIQRRRIARSEA | 0.0843 |
| HMDSILMPGVVNKELREALAILKNEGIGWADPEYASSTVTRNYVISTDPVEGIELAPGQKVRLVVSLGPKP | 0.153 |
| HMDSIQMKNNSILYYGNTAGYLDAKRNTAVVDPMFRTDEMESYLSEQKGLSVEWASGTYDRLT | -0.921 |
| HMDSLEIEEPITVKSLSAASGLKISDIIRKLMQEGIMATANQVIDREQAEAVLIDYNVDLVVKR | 0.0392 |
| HMDSLNWVEKIINTLPEQQRLIIQMRDIEQYEFAEIAKILEMNETAIRVALSRARKTIREFMIKTH | ≥ 0.43 |
| HMDSLSLTELRIDSASPWIGNRISDFSPYAGELVIMIIRGEETIVPNGDTIILDKDLLVIYSS | -1.39 |
| HMDSNFNYELVGFRLDDMGLNSSVIVKRNNQEFVIQKGDLLENKYLLNSVTKKNINFSYLGKNYQI | -0.731 |
| HMDSNPLSEREQEVLQLVAKGASNQTIAEQLFLSNGTIRNYMTAIFNKLNANNRTDAVRIARENGW | -0.24 |
| HMDSPVEEWANRGLAYDPSLVTETMAKLYAKQGQIGLARKAFKRLALIYPEKSVYFAFQLKKLSNN | 0.0712 |
| HMDSPVLTAEIKALIDKELEQNAVKLATGLKKQRKRATDIHDALIRQGHEVSYRTVVRYIRNKTAQTS | ≥ 0.43 |
| HMDSTSEILKVIQNIVKKEDPYHPLSDDKISNLLNDLDYQISRRTVAKYRDILTIPSSSKRRKL | -0.0776 |
